From IntAct's records for PubMed 16477026

B1: Effector protein HopAB2 (Pseudomonas syringae pv. tomato (strain DC3000)), Q8RSY1 (parent)
chain: MAGINRAGPSGAYFVGHTDPEPVSGQAHGSGSGASSSNSPQVQPRPSNTPPSNAPAPPPTGRERLSRSTALSRQTREWLEQGMPTAEDASVRRRPQVTADAATPRAEARRTPEATADASAPRRGAVAHANSIVQQLVSEGADISHTRNMLRNAMNGDAVAFSRVEQNIFRQHFPNMPMHGISRDSELAIELRGALRRAVHQQAASAPVRSPTPTPASPAASSSGSSQRSLFGRFARLMAPNQGRSSNTAASQTPVDRSPPRVNQRPIRVDRAAMRNRGNDEADAALRGLVQQGVNLEHLRTALERHVMQRLPIPLDIGSALQNVGINPSIDLGESLVQHPLLNLNVALNRMLGLRPSAERAPRPAVPVAPATASRRPDGTRATRLRVMPEREDYENNVAYGVRLLNLNPGVGVRQAVAAFVTDRAERPAVVANIRAALDPIASQFSQLRTISKADAESEELGFKDAADHHTDDVTHCLFGGELSLSNPDQQVIGLAGNPTDTSQPYSQEGNKDLAFMDMKKLAQFLAGKPEHPMTRETLNAENIAKYAFRIVP

Variants of: B1
Settings: with rs27a_sollc UBI3, P62980

| Variant | effect of a mutation on the interaction |
| --- | --- |
| K512R;K529R | decreasing interaction strength |
